The values below are quoted from earlier work in paper PMC8619967.

Read-outs that look alike come from different tables or passages of the source.

The target of data set [1] is HIV-1 capsid (Human immunodeficiency virus 1) (UniProt O93182).
The target is the same in data set [2]. This is another data set of the same source.
The target in data set [3] is HIV-1 CA-NC nanotubes CA-NC (Human immunodeficiency virus 1) (UniProt O93182).
HIV-1 CA-NC nanotubes CA-NC (Human immunodeficiency virus 1), sequence (O93182 133-433): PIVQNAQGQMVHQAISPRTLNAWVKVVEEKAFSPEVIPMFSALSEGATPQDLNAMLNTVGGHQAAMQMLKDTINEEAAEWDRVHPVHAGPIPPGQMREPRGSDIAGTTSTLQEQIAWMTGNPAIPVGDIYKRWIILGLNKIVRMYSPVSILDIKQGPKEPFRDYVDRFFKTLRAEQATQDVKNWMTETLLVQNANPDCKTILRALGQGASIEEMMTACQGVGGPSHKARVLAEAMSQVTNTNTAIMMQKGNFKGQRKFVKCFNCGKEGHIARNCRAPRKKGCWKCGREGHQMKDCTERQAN

HIV-1 capsid (Human immunodeficiency virus 1), sequence (O93182 133-363): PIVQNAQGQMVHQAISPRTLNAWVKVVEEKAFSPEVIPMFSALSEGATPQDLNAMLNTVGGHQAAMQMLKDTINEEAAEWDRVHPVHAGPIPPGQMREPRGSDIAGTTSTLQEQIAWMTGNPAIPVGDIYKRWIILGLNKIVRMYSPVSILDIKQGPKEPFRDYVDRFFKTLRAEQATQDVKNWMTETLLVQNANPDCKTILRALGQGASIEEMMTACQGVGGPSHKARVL
TRN-1, sequence (Q92973 whole entry): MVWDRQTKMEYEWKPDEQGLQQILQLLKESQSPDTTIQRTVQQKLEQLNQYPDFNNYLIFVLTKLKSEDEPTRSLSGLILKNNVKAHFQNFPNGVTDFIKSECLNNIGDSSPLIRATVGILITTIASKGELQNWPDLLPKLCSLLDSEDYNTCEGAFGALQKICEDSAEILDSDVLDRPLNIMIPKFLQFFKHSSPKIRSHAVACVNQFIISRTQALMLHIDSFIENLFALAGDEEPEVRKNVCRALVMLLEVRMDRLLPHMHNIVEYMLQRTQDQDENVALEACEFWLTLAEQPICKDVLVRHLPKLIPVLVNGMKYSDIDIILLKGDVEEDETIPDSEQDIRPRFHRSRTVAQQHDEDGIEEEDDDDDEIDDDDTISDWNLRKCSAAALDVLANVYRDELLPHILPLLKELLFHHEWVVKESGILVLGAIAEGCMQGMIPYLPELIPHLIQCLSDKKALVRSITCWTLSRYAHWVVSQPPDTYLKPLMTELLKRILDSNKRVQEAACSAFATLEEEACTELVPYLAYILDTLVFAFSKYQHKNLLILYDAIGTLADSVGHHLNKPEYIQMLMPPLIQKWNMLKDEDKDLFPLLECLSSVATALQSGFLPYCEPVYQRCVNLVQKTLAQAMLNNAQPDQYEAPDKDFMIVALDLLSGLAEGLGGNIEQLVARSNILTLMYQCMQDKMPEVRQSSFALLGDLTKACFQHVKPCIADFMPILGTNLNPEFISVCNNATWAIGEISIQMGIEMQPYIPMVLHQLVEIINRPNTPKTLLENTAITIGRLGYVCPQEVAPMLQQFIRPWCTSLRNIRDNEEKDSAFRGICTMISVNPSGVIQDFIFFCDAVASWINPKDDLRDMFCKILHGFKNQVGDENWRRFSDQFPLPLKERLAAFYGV
NUP358 CycH, sequence (P49792 3067-3223): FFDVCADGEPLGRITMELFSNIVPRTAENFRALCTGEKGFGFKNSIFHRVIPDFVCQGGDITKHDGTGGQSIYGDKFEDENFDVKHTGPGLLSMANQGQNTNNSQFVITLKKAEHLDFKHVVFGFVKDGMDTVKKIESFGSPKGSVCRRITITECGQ

Turning to NUP358 CycH (from UniProt P49792), the Kd (as a rule, the concentration at which binding is half-saturated) in data set [1] is 200 µM.
With NUP153 FG-motif (from UniProt P49790), in data set [2], the Kd was 50 µM.
For the substance TRN-1 (from UniProt Q92973), the Kd in data set [3] is 0.07 µM.
